“And” between values parts separate entries of the source, which are not always exact repeats. Equal entries are not always repeated.

A short description of this data set: UV-visible spectroscopy of oxidized or kynurenine-modified amino acids, peptides, proteins and polymers. It is filed as physicochemical. How it is done:
A prototype of oxidized amino acid-bearing peptides from enzymatic hydrolysate of pea protein was made. […] More particularly, peptides derived from enzymatic hydrolysis of pea protein (Sigma, 16974) were oxidized in 50 mM sodium phosphate buffer at room temperature using ozone bubbled through the solution (A2Z Ozone Inc., MP1000).
A prototype of kynurenine-bearing polymers was produced from enzymatic hydrolysis of soy protein generating starting peptide material. The soluble peptides were then oxidized in a semi-sealed container into which ozone was pumped.
This was done with bovine serum albumin buffer exchanged with into 50 mM sodium phosphate pH 6.5 to remove small molecule impurities.
The polymeric lysine (8.8 mg) was suspended in 200 microliters of 50 mM sodium bicarbonate pH 9.5 and treated with DL-kynurenine (Sigma 61250) (~1 mM) for 44 hours at 37° C. in the dark. […] Controls of poly-lysine with no added kynurenine and that of kynurenine without poly-lysine were run concurrently. […] Soy peptides were used similarly, though they also contain other potential nucleophilic residues besides lysine to which kynurenine monomers could be added, including cysteine and histidine. These soy peptides were generated from overnight incubation at 37° C. of soy protein powder (5 g/100 mL deionized water) using porcine pepsin (0.5 mg/mL) all brought to pH 2.0 using hydrochloric acid. After this incubation, insoluble material was removed via centrifugation, and the clarified solution was brought to pH 9.5 using sodium hydroxide. This soy peptide solution was added in two parts to one part 50 mM sodium bicarbonate pH 9.5. To 1 mL of soy peptide solution was added 0.2 mL DLkynurenine (final 1 mM), and this was incubated for 44 hours at 37° C. in the dark. To isolate peptides from free kynurenine to determine if kynurenine monomers were added by UV-visible spectroscopy, small molecules and even some small peptides were removed with size exclusion (Sephadex G-50, GE Healthcare).

Setting [1] is: after treatment with ozone, UV-visible spectroscopy.
[2] abbreviates: after incubation with DL-kynurenine (44 hours, 37° C., pH 9.5) and size exclusion.

Take `N[C@@H](Cc1c[nH]c2ccccc12)C(=O)O` [L-tryptophan]: under setting [1], the “region of increased absorbance” value is 300 to 400 nm and 300-400 nm. With `NC(CC(=O)c1ccccc1NC=O)C(=O)O` (centres unmarked) [N-formyl kynurenine], the “region of increased absorbance” value under setting [1] is reported as 300-350 nm. On to “bovine serum albumin: bovine serum albumin stirred under a stream of ozone for 8 hours”, for which the “region of increased absorbance” value under setting [1] is 300-350 nm. For poly-L-lysine, under setting [2], the “region of increased absorbance” value is 300-400 nm and the “wavelength of absorbance increase in the UVA” value was “around 360 nm”.

For the origin of these results see patent US12728086B2, “Sunscreens derived from kynurenines and other UV-absorbing oxidized amino acids bound to peptides or polymers” (The Trustees of Princeton University, priority 2021, dated 2026).
